One molecule from publication PMC1133794 can be followed below.

For this data set, the target named is MyoD (UniProt P10085 1-318). Kind of data set: EMSA.
Sequence of MyoD (P10085 whole entry): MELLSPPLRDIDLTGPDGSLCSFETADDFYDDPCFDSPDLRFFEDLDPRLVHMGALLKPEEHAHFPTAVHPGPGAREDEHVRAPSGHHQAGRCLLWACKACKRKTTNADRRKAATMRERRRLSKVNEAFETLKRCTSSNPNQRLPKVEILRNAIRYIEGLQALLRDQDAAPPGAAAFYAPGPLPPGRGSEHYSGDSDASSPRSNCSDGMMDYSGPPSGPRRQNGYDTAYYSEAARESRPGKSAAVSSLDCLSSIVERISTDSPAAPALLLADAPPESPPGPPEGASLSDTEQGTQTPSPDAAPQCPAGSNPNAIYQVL

B1: G'2 bimolecular tetraplex integrin 26/integrin 29 (structured_DNA)
DNA 1: CATGGGGGCGGGAAGGGGCGGGGTCT
DNA 2: AAAGGTGGGGCGGCAGGGCGCAAGGCAAT
As to B1, the binding result is reported as “binds”.
